Data: article PMC12839305 (Biomolecules, 2025)

T1: LRP1 cluster II (CL II, 786–1165 aa) (human, UniProt Q07954 786-1165)
T1 construct: not shown: FLAG or 6 × HIS (same vector as Gn)
T1 sequence: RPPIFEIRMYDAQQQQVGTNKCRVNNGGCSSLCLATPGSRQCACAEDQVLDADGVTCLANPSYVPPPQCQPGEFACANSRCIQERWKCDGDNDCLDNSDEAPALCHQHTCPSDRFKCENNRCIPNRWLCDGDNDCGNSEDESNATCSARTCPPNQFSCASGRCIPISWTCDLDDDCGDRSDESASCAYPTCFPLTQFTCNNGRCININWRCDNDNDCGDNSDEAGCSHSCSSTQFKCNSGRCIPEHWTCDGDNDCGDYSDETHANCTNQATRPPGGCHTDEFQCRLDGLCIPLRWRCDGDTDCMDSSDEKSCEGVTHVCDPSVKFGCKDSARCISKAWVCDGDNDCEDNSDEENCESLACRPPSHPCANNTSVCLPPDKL

B1: LRP1 CL IV-A, repeats A21–A24 (3332–3491 aa) (domain or fragment)
chain: not shown
B2: RVFV glycoprotein Gn head domain (154–469 aa) (domain or fragment)
chain: EDPHLRNRPGKGHNYIDGMTQEDATCKPVTYAGACSSFDVLLEKGKFPLFQSYAHHRTLLEAVHDTIIAKADPPSCDLLSAHGNPCMKEKLVMKTHCPNDYQSAHHLNNDGKMASVKCPPKYELTEDCNFCRQMTGASLKKGSYPLQDLFCQSSEDDGSKLKTKMKGVCEVGVQALKKCDGQLSTAHEVVPFAVFKNSKKVYLDKLDLKTEENLLPDSFVCFEHKGQYKGTMDSGQTKRELKSFDISQCPKIGGHGSKKCTGDAAFCSAYECTAQYANAYCSHANGSGIVQIQVSGVWKKPLCVGYERVVVKRELS
B3: LRP1 CL IV-B, repeats A25–A28 (3492–3649 aa) (domain or fragment)
chain: not shown

Tests used:
Conditions in all cases: both partners purified
[1] = biological target: B2; assay: BLI; […]; 300 s association, 300 s dissociation; […], global 1:1 model; Octet RED96
[2] = biological target: T1, LRP1 cluster II (CL II, 786–1165 aa); assay: BLI
[3] = biological target: T2, LRP1 cluster IV (CL IV, 3332–3779 aa) (human, UniProt Q07954 3332-3779); assay: BLI
T2 sequence (Q07954 3332-3779): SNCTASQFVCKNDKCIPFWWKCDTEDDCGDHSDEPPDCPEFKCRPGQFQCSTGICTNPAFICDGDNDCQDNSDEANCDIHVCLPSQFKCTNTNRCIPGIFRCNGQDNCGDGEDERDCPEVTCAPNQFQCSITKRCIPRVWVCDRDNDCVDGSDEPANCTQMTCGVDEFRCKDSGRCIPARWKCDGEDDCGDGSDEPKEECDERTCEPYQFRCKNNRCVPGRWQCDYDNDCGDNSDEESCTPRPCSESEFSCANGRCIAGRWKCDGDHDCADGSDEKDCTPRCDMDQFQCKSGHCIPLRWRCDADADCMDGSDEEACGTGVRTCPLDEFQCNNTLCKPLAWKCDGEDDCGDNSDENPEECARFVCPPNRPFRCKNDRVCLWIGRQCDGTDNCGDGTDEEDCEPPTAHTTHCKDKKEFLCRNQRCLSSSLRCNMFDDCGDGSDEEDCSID

[4] = biological target: T1, LRP1 cluster II (CL II, 786–1165 aa); assay: BLI; […]; 300 s association, 300 s dissociation; […], global 1:1 model; Octet RED96
[5] = biological target: T2, LRP1 cluster IV (CL IV, 3332–3779 aa); assay: as above

Binder | Kd [1] [nM] | Kd [2] [nM] | Kd [3] [nM] | Kd [4] [nM] | Kd [5] [nM]
B1 | 72 | – | – | – | –
B2 | – | 220 | 120 | 89 | 56
B3 | 36 | – | – | – | –
